Laboratory results from patent US20230348852A1, “METHODS AND COMPOSITIONS FOR OCULAR CELL THERAPY” (NOVARTIS AG, priority 2020, published 2023).

Tests used:
[1] = system: human B2M; assay: CRISPR/Cas9-mediated deletion of B2M in HEK293 (lipofection, FACS); format: cell-based; conditions: lipofection of tracrRNA, gRNA and Cas9 mRNA; FACS after 72 h
Experimental: One day before transfection, 500′000 HEK293cells (ATCC, Manassas, VA) were plated in a 35 mm dish and grown in DMEM/10%FBS. The following day, cells were transfected with a mixture of tracrRNA-gRNA-Cas9 mRNA. A stock of 10 micromolar was prepared resuspending 20 nanomoles of gRNA and 20 nanomoles tracrRNA in 2000 microlitre 10 millimolar Tris buffer pH7.4 each.
The mixture was added drop wise to the culture dish in 2.5 ml DMEM/10%FBS medium. The transfection reagent alone represented the transfection negative control.
After 6 h incubation in 5% CO2 at 37° C. medium was replaced with fresh DMEM/10%FBS medium. After 72 h in a 5% CO2 incubator cells were prepared for FACS analysis. FACS analysis: HEK293 cells were treated with Accutase (ThermoFisher, Cat # A1110501) for 20 minutes in 5% CO2 at 37° C. The reaction was stopped by using cell culture medium containing 10% Serum and transferred to a falcon tube for a centrifugation step (1000 rpm, 5 minutes). After aspirating the medium cells were resuspended in 200 microlitre FACS buffer (PBS/10%FBS).
To analyze the expression of B2M and HLA-ABC, 5 microlitre APC mouse anti-human β2-microglobulin antibody (Biolegend, Cat #316312) and 20 microlitre PE mouse anti-human HLA-ABC antibody (BD Bioscience, Cat # 560168) were added to the cell suspension and incubated for 30 minutes on ice. Cells were washed 3 times after antibody labelling with FACS buffer and resuspended in 500 microlitre in FACS buffer.
Each sample was transferred to one well of a round bottom 96 well plate and analyzed on a BD LSRFortessa X-20 device. FACS data were analyzed using BD FACSDiva software.

[2] = system: CD8+ T-cells; assay: LSC/T-cell reaction assay; format: cell-based, human; conditions: B2M/HLA-Class I negative LSCs co-cultured 10 days with CD8+ T-cells from 4 donors
Experimental: An LSC/T-cell assay was performed in flat bottom 96well synthemax coated plates in duplicates and incubated in 5% CO2 at 37° C. for 10 days. RPMI-1640 supplemented with HEPES (100 µM), non-essential aas (10x), sodium pyruvate (10 mM), 2-Mercapthoethanol (10x), 10% FBS and 1% Penicillin-Streptomycin (Gibco by Life Technologies) was used as medium for co-culture. Alternatively, RPMI-1640 supplemented with HEPES (10 mM), non-essential aas (1x), sodium pyruvate (1 mM), 2-Mercapthoethanol (1x), 10% FBS and 1% Penicillin-Streptomycin (Gibco by Life Technologies) was used as medium for co-culture.
One day before co-culture, LSCs (stimulator cells) were passed and cultured to a confluency of around 70% (30′000 - 50′000 cells) and cultured with LSC medium including compound. On day two, peripheral blood mononuclear cells (PBMC) were separated using EDTA blood with the Ficoll-Paque method (GE Healthcare Life Sciences, cat #17-1440-03). […]
After 10 days, CD8+ cells were transferred to a U-bottomed 96-well plate and washed 3 times using autoMAC rinsing solution (Miltenyi Biotec, Cat #130-091-222) including MACS BSA stock solution (Miltenyi Biotec, Cat #130-091-376). Cells were measured on a BD LSRFortessa X-20. FACS data were analyzed using BD FACSDiva software and FlowJo software.

[3] = system: B2M; assay: Targeted PCR and NGS (amplicon sequencing) of on-target and off-target sites in genome-edited LSCs; format: cell-based, human; conditions: for Number of sites positive for off-target activity in LSCs: of the potential off-target loci sequenced; for B2M purified rhAmpSeq indel: purified (B2M negative) LSC populations
Experimental: Potential CRISPR/Cas9-mediated cutting sites identified above were evaluated using targeted PCR and NGS in genome-edited expanded LSCs.
Selected sgRNAs (SEQ ID NO: 120, 162, 166, 167, 171, and 175) were further analyzed by amplicon sequencing in edited and non-edited cells. Primers flanking the potential off-target sites for each guide were used to detect indels by NGS analysis in edited LSCs and non-edited peripheral blood mononuclear cells. Sites that had either (1) a difference in mean indel percentage between edited and unedited cells greater than 0.5%; or (2) a p value less than 0.05 between edited and unedited indel were further analyzed. NGS sequence reads for such sites were assessed for characteristic indel patterns near the putative Cas9 cut site. Based on the results, we could assess the specificity of gRNAs and their suitability for therapeutic applications.

B1: 1-CR004366: gRNA targeting human B2M; targeting domain SEQ ID NO: 108; sgRNA SEQ ID NO: 120; from Dharmacon (nucleic acid)
guide: GAGUAGCGCGAGCACAGCUAGUUUUAGAGCUAGAAAUAGCAAGUUAAAAUAAGGCUAGUCCGUUAUCAACUUGAAAAAGUGGCACCGAGUCGGUGCUUUU
modifications: listed as RNA, chemistry not given here
notes: gRNA targeting human B2M; from Dharmacon
B2M knockout efficiency in HEK293 [1]: 70%
T-cell immune response in co-culture with gene edited LSCs [2]: almost completely eliminated
validated indels for off-target activity in LSCs ([3]; amplicon sequencing of potential off-target loci): zero
Number of sites positive for off-target activity in LSCs [3]: 0 of 64
Number of sites positive for off-target activity in LSCs ([3]; listed as SEQ ID NO: 120): no predicted sites tested positive for off-target activity
B2M purified rhAmpSeq indel [3]: 99.60±0.44%
B2M purified rhAmpSeq indel ([3]; listed as SEQ ID NO: 120): ~ 99%
